# T1: PUF4 RNA-binding domain (Saccharomyces cerevisiae, UniProt P25339 537-888)
# T1 sequence: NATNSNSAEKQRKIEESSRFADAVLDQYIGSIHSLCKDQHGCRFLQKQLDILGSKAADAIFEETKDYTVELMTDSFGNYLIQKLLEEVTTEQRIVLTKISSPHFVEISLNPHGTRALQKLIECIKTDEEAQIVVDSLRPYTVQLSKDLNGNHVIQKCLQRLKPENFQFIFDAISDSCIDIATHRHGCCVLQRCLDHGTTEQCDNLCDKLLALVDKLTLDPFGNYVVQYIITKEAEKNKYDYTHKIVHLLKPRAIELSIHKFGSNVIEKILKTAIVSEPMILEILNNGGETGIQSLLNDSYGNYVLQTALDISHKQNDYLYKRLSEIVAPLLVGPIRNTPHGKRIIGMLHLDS
# Molecular target: T1, PUF4 RNA-binding domain
# Experiment: Mg; RNA-MaP; 20 mM Na-HEPES pH 7.4, 30 mM KOAc, 0.75 mM MgCl2, 0.1% Tween-20, 5% glycerol, 0.1 mg/mL BSA, 2 mM DTT; 25 C; 0.0125-409.6 nM protein
# Conditions: tags: N-His6-TEV cleaved; C-SNAP kept, Cy3B-labelled; label: tethered on chip by stalled RNA polymerase
row,Binder,Kd [nM]
1,UCUCUUUGUAGUCUUUCUCUU (ssRNA) [Ic_S1_P4E.1_K4.1_C4.1_H4.1_A4.1_[T5G]_[A6T]_[T7C]_F4.1_[A9T]_T4.1],389
2,UCUCUUUGUAGCUCUUCUCUU (ssRNA) [Ic_S1_P4E.1_K4.1_C4.1_H4.1_A4.1_[T5G]_[A6C]_F4.1_[T8C]_[A9T]_T4.1],2020
3,UCUCUUUGUAGUCGCUCUCUU (ssRNA) [Ic_S1_P4E.1_K4.1_C4.1_H4.1_A4.1_[T5G]_[A6T]_[T7C]_F4.1_[T8G]_[A9C]_T4.1],> 2300
4,UCUCUUUGUAGUCUAUCUCUU (ssRNA) [Ic_S1_P4E.1_K4.1_C4.1_H4.1_A4.1_[T5G]_[A6T]_[T7C]_F4.1_T4.1],21.1
5,UCUCUUUGUAGCCUUUCUCUU (ssRNA) [Ic_S1_P4E.1_K4.1_C4.1_H4.1_A4.1_[T5G]_[A6C]_[T7C]_F4.1_[A9T]_T4.1],679
6,UCUCUUUGUAGUUACUCUCUU (ssRNA) [Ic_S1_P4E.1_K4.1_C4.1_H4.1_A4.1_[T5G]_[A6T]_F4.1_[T8A]_[A9C]_T4.1],982
7,UCUCUUUGUACGGUCUCUCUU (ssRNA) [Ic_S1_P4E.1_K4.1_C4.1_H4.1_A4.1_[T5C]_[A6G]_[T7G]_F4.1_[A9C]_T4.1],1490
8,UCUCUUUGUAGUUUUUCUCUU (ssRNA) [Ic_S1_P4E.1_K4.1_C4.1_H4.1_A4.1_[T5G]_[A6T]_F4.1_[A9T]_T4.1],118
9,UCUCUUUGUAGUCUGUCUCUU (ssRNA) [Ic_S1_P4E.1_K4.1_C4.1_H4.1_A4.1_[T5G]_[A6T]_[T7C]_F4.1_[A9G]_T4.1],406
10,UCUCUUUGUAGUCACUCUCUU (ssRNA) [Ic_S1_P4E.1_K4.1_C4.1_H4.1_A4.1_[T5G]_[A6T]_[T7C]_F4.1_[T8A]_[A9C]_T4.1],1760
11,UCUCUUUGUAGCAACUCUCUU (ssRNA) [Ic_S1_P4E.1_K4.1_C4.1_H4.1_A4.1_[T5G]_[A6C]_[T7A]_F4.1_[T8A]_[A9C]_T4.1],1210
12,UCUCUUUGUAGUCAUUCUCUU (ssRNA) [Ic_S1_P4E.1_K4.1_C4.1_H4.1_A4.1_[T5G]_[A6T]_[T7C]_F4.1_[T8A]_[A9T]_T4.1],971
13,UCUCUUUGUAGUGUUUCUCUU (ssRNA) [Ic_S1_P4E.1_K4.1_C4.1_H4.1_A4.1_[T5G]_[A6T]_[T7G]_F4.1_[A9T]_T4.1],736
14,UCUCUUUGUAGUGUGUCUCUU (ssRNA) [Ic_S1_P4E.1_K4.1_C4.1_H4.1_A4.1_[T5G]_[A6T]_[T7G]_F4.1_[A9G]_T4.1],575
15,UCUCUUUGUAGCAAUUCUCUU (ssRNA) [Ic_S1_P4E.1_K4.1_C4.1_H4.1_A4.1_[T5G]_[A6C]_[T7A]_F4.1_[T8A]_[A9T]_T4.1],857
16,UCUCUUUGUAGCAUUUCUCUU (ssRNA) [Ic_S1_P4E.1_K4.1_C4.1_H4.1_A4.1_[T5G]_[A6C]_[T7A]_F4.1_[A9T]_T4.1],32.4
17,UCUCUUUGUAGUUAUUCUCUU (ssRNA) [Ic_S1_P4E.1_K4.1_C4.1_H4.1_A4.1_[T5G]_[A6T]_F4.1_[T8A]_[A9T]_T4.1],685

row,Binder,Kd [nM]
1,UCUCUUUGUAGUUCGUCUCUU (ssRNA) [Ic_S1_P4E.1_K4.1_C4.1_H4.1_A4.1_[T5G]_[A6T]_F4.1_[T8C]_[A9G]_T4.1],> 2300
2,UCUCUUUGUAGCUUUUCUCUU (ssRNA) [Ic_S1_P4E.1_K4.1_C4.1_H4.1_A4.1_[T5G]_[A6C]_F4.1_[A9T]_T4.1],361
3,UCUCUUUGUAGUUUGUCUCUU (ssRNA) [Ic_S1_P4E.1_K4.1_C4.1_H4.1_A4.1_[T5G]_[A6T]_F4.1_[A9G]_T4.1],287
4,UCUCUUUGUAGCUUGUCUCUU (ssRNA) [Ic_S1_P4E.1_K4.1_C4.1_H4.1_A4.1_[T5G]_[A6C]_F4.1_[A9G]_T4.1],1590
5,UCUCUUUGUAGUUCUUCUCUU (ssRNA) [Ic_S1_P4E.1_K4.1_C4.1_H4.1_A4.1_[T5G]_[A6T]_F4.1_[T8C]_[A9T]_T4.1],798
6,UCUCUUUGUACGGCGUCUCUU (ssRNA) [Ic_S1_P4E.1_K4.1_C4.1_H4.1_A4.1_[T5C]_[A6G]_[T7G]_F4.1_[T8C]_[A9G]_T4.1],> 2300
7,UCUCUUUGUAGUUGUUCUCUU (ssRNA) [Ic_S1_P4E.1_K4.1_C4.1_H4.1_A4.1_[T5G]_[A6T]_F4.1_[T8G]_[A9T]_T4.1],802
8,UCUCUUUGUAGCAGUUCUCUU (ssRNA) [Ic_S1_P4E.1_K4.1_C4.1_H4.1_A4.1_[T5G]_[A6C]_[T7A]_F4.1_[T8G]_[A9T]_T4.1],1440
9,UCUCUUUGUAGUAAUUCUCUU (ssRNA) [Ic_S1_P4E.1_K4.1_C4.1_H4.1_A4.1_[T5G]_[A6T]_[T7A]_F4.1_[T8A]_[A9T]_T4.1],1500
10,UCUCUUUGUAGUGUAUCUCUU (ssRNA) [Ic_S1_P4E.1_K4.1_C4.1_H4.1_A4.1_[T5G]_[A6T]_[T7G]_F4.1_T4.1],52.3
11,UCUCUUUGUAGUAUUUCUCUU (ssRNA) [Ic_S1_P4E.1_K4.1_C4.1_H4.1_A4.1_[T5G]_[A6T]_[T7A]_F4.1_[A9T]_T4.1],297
12,UCUCUUUGUAUACCUCUCUU (ssRNA) [Ic_S1_P3E.1_K3.1_C3.1_H3.1_A3.1_F3.1_[T7C]_[A8C]_T3.1],48.9
13,UCUCUUUGUAGUUCAUCUCUU (ssRNA) [Ic_S1_P4E.1_K4.1_C4.1_H4.1_A4.1_[T5G]_[A6T]_F4.1_[T8C]_T4.1],1570
14,UCUCUUUGUAGUCGGUCUCUU (ssRNA) [Ic_S1_P4E.1_K4.1_C4.1_H4.1_A4.1_[T5G]_[A6T]_[T7C]_F4.1_[T8G]_[A9G]_T4.1],> 2300
15,UCUCUUUGUAGUAACUCUCUU (ssRNA) [Ic_S1_P4E.1_K4.1_C4.1_H4.1_A4.1_[T5G]_[A6T]_[T7A]_F4.1_[T8A]_[A9C]_T4.1],> 2300
16,UCUCUUUGUAUACGUCUCUU (ssRNA) [Ic_S1_P3E.1_K3.1_C3.1_H3.1_A3.1_F3.1_[T7C]_[A8G]_T3.1],82
